# Experiments:
# P3028 = P3028 (Homo sapiens, UniProt P02768); test: PEPSCAN rampo assay: binding of P3028 to support-bound peptides, sandwich ELISA; details: binding of P3028 to peptide on solid phase
# Text: Based on the ability of P28R to bind the P3028 sequence/structure, unblock the LFA-1 receptor, and ameliorate the P3028 sequence/structure-dependent immunosuppression, P28R was used as a template compound to identify additional compounds that bind to and sequester P3028. Variants of the P28R structure were synthesized, and tested for the ability to bind P3028 using PEPSCAN technology (see Example 12). A library of peptides that include each genetically-coded amino acid substitution at each amino acid position of P28R (i.e., 19 substitutions for each position) was synthesized. Each peptide was affixed to a support pin, and the peptide library was incubated with P3028. The binding of the candidate inhibitors to P3028 was detected by a sandwich ELISA, where a rabbit anti-mouse peroxidase (rampo) secondary antibody was employed (see Example 12). The binding of each peptide was then assigned a rampo score (see FIG. 27). Peptide P28R had rampo values ranging between about 262 and 460 with a mean value of 370. In some embodiments, the immunoregulatory peptide inhibitor as disclosed herein, is selected for a desired P3028 binding rampo score. In some embodiments, the desired P3028 binding rampo score is greater than or equal to the rampo score of P28R. It is also contemplated that some peptides that bind to P3028 with less affinity than P28R have therapeutic application. Some peptides with binding affinities that are less than P28R, for example, may modulate signal transduction events differently than P28R by virtue of the fact that the affinity to P3028 is less. […] Accordingly, contemplated embodiments include peptides that bind with any affinity to P3028 (e.g., any one or more of the peptides provided in Table 5.1, preferably peptides that modulate the immune system (e.g., modulate, upregulate or down regulate a marker of the immune system or immunosuppression, such as reducing a P3028-mediated inhibition of immune cell proliferation, spreading, migration, or NK-cell cytotoxicity).
# It is contemplated that inhibitors of any one or more of the peptides listed in Tables 1-4 can comprise modifications of the P28R (SEQ ID NO: 2) or P28 core (SEQ ID NO: 62) sequence, and further can be useful for reducing inhibition of the LFA-1 receptor, or for stimulating immune cells. To identify modification to inhibitor peptides in accordance with some embodiments herein, positional scan data was used to study the influence of substitution of different types of amino acids in each position of P28R (SEQ ID NO: 2) on the binding of P3028 (SEQ ID NO: 185). Each amino acid in the peptide sequence of P28R (SEQ ID NO: 2) was exchanged with all of the naturally occurring amino acids, and binding of P3028 (SEQ ID NO: 185) to each peptide on a solid phase chip was assessed (see, e.g. Example 36). A number of optional modifications to P28R in accordance with embodiments herein are summarized in Tables 5.3, 5.4, 5.5, 5.6, and 13. Optionally, an inhibitor peptide in accordance with some embodiments herein can comprise one or more of the modifications of Table 5.3 or Table 13. Optionally, an inhibitor peptide comprises a central core of positions 2, 5-11, and 15 as provided in Table 5.3, and the remaining position are omitted or substituted with substantially any amino acid. Optionally, an inhibitor peptide comprises a central core of positions K2, T5-S11, and E15 of SEQ ID NO: 2, and the remaining position are omitted or substituted with substantially any amino acid.
# Embodiments of the invention also include immunoregulatory peptide inhibitors that have a specific affinity to P3028 sequences or structures. In some embodiments, the immunoregulatory peptide inhibitors have specific affinity to P3028 sequences or structures as measured by a rampo assay in which the immunoregulatory peptide inhibitors are affixed to a solid phase, P3028 is added, and the enzymatic activity of a rampo secondary antibody is measured so as to detect binding (see Example 12). […]
# [1] = tested on: PBMCs from a healthy control; test: PBMC activation (CD69, CD71) by flow cytometry in RPMI plus 10% human AB serum; format: cell-based; details: 40 μg/mL; 24 hours
# Method: FIG. 41 is a series of graphs illustrating effects of modified peptides on activation of PBMCs from healthy control person. PBMCs were incubated with the peptides (40 μg/mL) for 24 hours in RPMI plus 10% human AB serum. Activation is determined as percentage of cells with enhanced marker CD69 using flow cytometry. FIG. 41A illustrates results of two experiments (410 and 412) performed for each peptide. FIG. 41B illustrates results of two experiments (414 and 416) performed for each peptide.
# FIG. 42 is a series of graphs illustrating effects of the full length peptide P28R and the 6 amino acid central sequence (32230, FFVKLS, SEQ ID NO: 62) in culture medium containing normal human AB serum. Activation is determined as percentage of cells with enhanced marker CD69 or CD71 using flow cytometry. PBMCs were incubated with the peptides (40 μg/mL) for 24 hours in RPMI plus 10% human AB serum. FIG. 42A illustrates the results of two experiments (420 and 422) performed for each peptide. FIG. 42B illustrates the results of two experiments (424 and 426) performed for each peptide.
# FIG. 46 is a series of graphs illustrating Effect of modified peptides on activation of PBMCs from healthy control person. […] PBMCs were incubated with the peptides (40 μg/mL) for 48 hours in RPMI plus 10% human AB serum.
# Based on the positional scan data, it is contemplated that substitutions of SEQ ID NO: 2 can be useful in accordance with some embodiments herein for binding P3028, de-blocking the LFA-1 receptor from P3028-mediated inhibition (e.g. displacing bound P3028 peptide and P3028-structure containing molecules from the LFA-1 receptor), and/or stimulating immune cells. The activity of peptide P28R (SEQ ID NO: 2) and modifications of P28R was studied in a human ex vivo model using PBMCs from a healthy control human in short term cultures, and with PBMC activation measured as a percentage of cells with enhanced CD69 (see Example 37).
# As P28R (SEQ ID NO: 2) can bind to P3028 and stimulate PBMC's from healthy controls in short term cultures, for example when in a culture medium comprising RPMI plus 10% normal human AB serum (see Example 37), it is contemplated that truncations of P28R in accordance with some embodiments herein can be useful for binding to inhibitors of any one or more of the peptides listed in Tables 1-4. Truncations of P28R were assessed for their ability to activate PBMC's (see Example 38). PBMCs were incubated with the peptides (40 μg/mL) for 24 hours in RPMI plus 10% human AB serum. PBMC activation was measured as percent cells with enhanced expression of either CD69 (FIG. 42A) or CD71 (FIG. 42B) using flow cytometry. […] However, PBMCs were also incubated with the peptides in cancer sera from dogs, or in caner sera from human cancer patients (see FIG. 43). […] As such, it is contemplated that in accordance with some embodiments herein, P28R, P28 core, or combinations of these peptides are useful for stimulating immune cells in the serum of a subject that has cancer.
# Effects of modified peptides on the activation of PBMCs from a healthy control person were assessed (see Example 41). PBMCs were incubated with the peptides (40 μg/mL) for 48 hours in RPMI plus 10% human AB serum, and PBMC activation was determined by flow cytometry based on the percentage of cells with enhanced marker CD69 or CD71. Peptides P28R (SEQ ID NO: 2), P28 core (peptide 32230) (SEQ ID NO: 62), 32251 ([…]) (SEQ ID NO: 592), 32814 ([…]) (SEQ ID NO: 586), 32815 ([…]) (SEQ ID NO: 595), 32665 ([…]) (SEQ ID NO: 593), and 32819 ([…](C(PEG24))) (SEQ ID NO: 594) were tested. […] Accordingly, it is contemplated herein that
# P3028 (SEQ ID NO: 185) = P3028 (SEQ ID NO: 185) (Homo sapiens, UniProt P02768); test: PEPSCAN (rampo) ELISA: binding of His-tagged P3028 to P28R variants on chip; details: truncations, deletions, glycine substitutions (FIG. 29, 30)
# Method: Based on the structure of peptide P28R, additional peptides were identified that bind to P3028. The additional binders included deletions, truncations, and or amino acid substitutions of peptide P28R. Binding of peptides to P3028 was assayed using PEPSCAN technology. PEPSCAN technology, or “rampo” assays are biochemical binding assays, details of which are provided below:
# A peptide microarray screening technology was used to measure binding of P28R (SEQ ID NO: 2) and variants of P28R to P3028 (SEQ ID NO: 185). In this technology libraries of synthetic peptides are synthesized and covalently linked onto polypropylene microarray chips. The linear peptides were synthesized onto credit-card format polypropylene cards (455 peptide formats/card) as described by (Timmerman et al., 2004) using standard Fmoc-chemistry using hexamethylenediamine (HMDA) as linker and deprotection using trifluoroacetic acid (TFA) with scavengers.
# The binding of His-tagged P3028 to each peptide on the card was tested in an ELISA assay. The 455-well credit card format polypropylene cards containing the covalently linked peptides were incubated with His-tagged P3028 peptide (PGE73) solution consisting of 0.5 μg/mL diluted in blocking solution (4% horse serum, 5% ovalbumin (w/v) in PBS/1% TWEEN reagent). After washing, the peptides were incubated with a monoclonal mouse anti-His-tag antibody (Novagen, 70796-3, diluted 1/1000 in the incubation buffer) and subsequently after washing with a rabbit-anti-mouse antibody peroxidase (Rampo) conjugate (Southern Biotech, 6175-05, diluted 1/1000), for one hour at 25° C. After washing, the peroxidase substrate 2,2′-azine-di-3-ethylbenzthiazoline sulfonate (ABTS) and 2 μL of 3% H2O2 were added. The binding capacity of the mAb was measured as a color development at 405 nm (optical density, OD405). The color development was quantified with a charge-coupled device (CCD)—camera and an image processing system.
# The OD405-values obtained by a CCD-camera was considered as raw data values (“rampo values,” “rampo units,” or “rampo scores”). The values mostly ranged from 0 to 3000, a log scale similar to 1 to 3 of a standard 96-well plate ELISA-reader. First the CCD-camera made a picture of the card before peroxidase coloring and then again a picture after the peroxidase coloring. […] These values were copied into an excel file and labeled as a raw data file. One follow-up manipulation was allowed. Sometimes a well can contain an air-bubble resulting in a false-positive value. If manual inspection of the cards detect an air-bubble the value are set to 0 for that well.
# A library of peptides tested for binding to peptide P3028 included all substitutions for each position of the peptide P28R (SEQ ID NO: 2) (i.e., 19 substitutions for each position). The results of the binding experiments are shown in FIGS. 27, 28, 29 and 30 and Table 5.1. […] P28R had rampo values ranging between 262 and 460 with a mean value of 370. […] In addition, M and S in position 7 (SEQ ID NOs: 9 and 10, respectively), and Q and M in position 11 (SEQ ID NOs: 15 and 16, respectively) all have rampo values over 700.
# For each position of P28R, the rampo scores of the group of 19 different peptides containing an L-amino acid substitution were compared to the rampo score of a control sample P28R peptide (SEQ ID NO: 2) for that group. Single-amino acid substitutions having a rampo score greater than or substantially equivalent to P28R were identified. […]
Substance,RAMPO Score (P3028),further results
414 (KKLDTFFVKLSLFTER) [compound 414],402,–
400 (KKLDTFFVKLSLFTER) [compound 400],437,–
KSLDTFFVKLSLFTER [compound 30864],–,"PBMC activation, cells with enhanced CD69 [1]: did not stimulate"
430 (KKLDTFFVKLSLFTER) [compound 430],371,–
442 (KKLDTFFVKLSLFTER) [compound 442],348,–
KKLDTFVKLSLFTER [SEQ ID NO: 65],–,"rampo score / binding to P3028 compared with P28R (P3028 (SEQ ID NO: 185)): comparable to, or higher than peptide P28R"
KKLDTFFVDLSLFTER [compound 31138],–,"PBMC activation, cells with enhanced CD69 [1]: did not stimulate"
403 (KKLDTFFVKLSLFTER) [compound 403],428,–
KKLDTFFVNLSLFTER [compound 31136],–,"PBMC activation, cells with enhanced CD69 [1]: did not stimulate"
KKLTFFVKLSLFTER [SEQ ID NO: 64],–,"rampo score / binding to P3028 compared with P28R (P3028 (SEQ ID NO: 185)): comparable to, or higher than peptide P28R"
428 (KKLDTFFVKLSLFTER) [compound 428],375,–
406 (KKLDTFFVKLSLFTER) [compound 406],424,–
KKLDTFFVKLSLFTFR [compound 30685],–,"PBMC activation, cells with enhanced CD69 [1]: did not stimulate"
427 (KKLDTFFVKLSLFTER) [compound 427],377,–
KKFFVKLSLFTER [SEQ ID NO: 76],–,"rampo score / binding to P3028 compared with P28R (P3028 (SEQ ID NO: 185)): comparable to, or higher than peptide P28R"
398 (KKLDTFFVKLSLFTER) [compound 398],445,–
487 (KKLDTFFVKLSLFTER) [compound 487],308,–
408 (KKLDTFFVKLSLFTER) [compound 408],414,–
476 (KKLDTFFVKLSLFTER) [compound 476],319,–
399 (KKLDTFFVKLSLFTER) [compound 399],442,–
396 (KKLDTFFVKLSLFTER) [compound 396],460,–
516 (KKLDTFFVKLSLFTER) [compound 516],260,–

# From US9657059B2, “Immune system modulators” (Canimguide Therapeutics AB, priority 2013, dated 2017)
